According to the supplement of paper PMC10567573:

B1: NR2F2 (parent)
chain: NIPFFPDLQITDQVALLRLTWSEL
B2: KRT15 (parent)
chain: FGGGSTRGGSLLAGGGGFGGGSLS
B3: WDR41 (parent)
chain: HVGELIIWDALDWTMQAYERNFWD

Variants of: B1
Experiment: protein stability index of a GFP-peptide fusion (GPS, HEK-293T) (PSI 1-6); higher = more stable
Conditions: c terminus: a fixed tail appended
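Further: lentivirally expressed fusions sorted by FACS into six bins by GFP to DsRed ratio, PSI derived from sequencing read proportions per bin multiplied by bin number.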

Protein stability index of substitutions, site by site:
N1: K 2.26, M 3.01, L 2.23, F 3.02, Y 2.74, S 1.75, W 2.72, C 2.81, E 2.36, H 2.44, D 3.27, Q 1.1, P 2.45, T 2.02, R 4.3
I2: C 2.42, E 2.07, A 1.05, D 2.85, F 2.28

Variants of: B2
Experiment: as above
Conditions: c terminus: a fixed tail appended

Protein stability index: each site, then its substitutions
T6: H 1.48
G15: A 1.9, R 2.08, H 3.02
S24: D 1.61, P 2.66
G8: S 1.62, T 1.8
G2: N 2.94, S 1.75
L11: R 2.08, A 2.83
S5: F 2.1
G17: T 3.32, K 1.41, C 1.03, M 1.07
G4: H 2.22, S 1.68, L 2.04, M 1.89
G19: I 3.12, D 1.47
R7: K 2.32, P 3.05, N 1.7
G3: W 1.29, A 1.79, N 1.93, F 1.7, I 3.22, M 2.74
G21: P 2.65, D 1.75
A13: L 2.1, R 2.67, C 1.94
G14: I 1.85, R 2.42, S 2.43
L12: N 3.01, Y 1.52, M 2.58
G16: Q 2.4, K 2.14
G20: K 2.1, P 3.18, Y 2.52
F18: I 1.76
G9: Q 3.25, S 1.05

Variants of: B3
Experiment: as above
Conditions: c terminus: a fixed tail appended

Protein stability index, by site and new letter:
A10: G 1.95, P 1.5, S 1.63, K 1.09, H 1.61, D 1.6, N 1.05, W 3.36, T 3.56
V2: A 1.58, S 2.47, Q 2.35, N 1.48, P 1.54, K 2.35, E 1.51, I 2.08, G 1.65, L 3.8, M 2.59, T 1.92, D 2.01, C 1.97, H 2.44, R 1.09, F 2.69
I7: H 2.17, W 2.44, A 1.87, C 1.26, G 1.8, L 1.93, D 2.07, Y 2.71, E 2.41, K 1.96, M 1.52, R 1.99, S 2.33, P 2.87, T 1.41, Q 2.11, V 1.59, N 2.19
A17: C 2.5, H 1.63, T 1.74, G 1.81, W 3.37, E 2.26, K 2.09, P 1.76, F 3.37, I 1.15, N 4.42
E19: I 2.09, C 2.17, V 1.87, Q 3.24, A 1.64, T 1.44, N 1.91, P 1.72, H 2.77, D 1.67
I6: C 1.47, G 1.22, Y 2.39, M 2.35, W 2.51, A 1.75, D 1.81, Q 1.62, S 1.66, T 1.87, E 1.36, R 1.55, K 2.75, P 2.41, N 2.17, H 1.59
D12: V 2.81, F 3.35, Y 1.11, K 2.15, P 2.1
T14: K 2.31, Q 1.38, N 1.42, G 2.08, S 1.24, Y 4.99, P 2.28, V 2.54, D 1.68
W23: D 1.89, S 1.82, C 1.71, I 2.83, K 1.39, P 1.45, G 2.62, V 3.03, E 1.72, L 1.8, N 1.71
H1: N 1.48, Q 1.9, R 1.58, E 1.27, C 2.04, I 4.28, S 3.37, Y 2.18, L 2.13, T 2.01, P 1.49, K 2.73, M 3.52
W13: C 2.51, D 2.07, H 2.04, Q 2.21, Y 2.84, S 3.29, P 1.52, F 4.66, A 1.98, K 2.37, E 1.59, T 1.97, N 1.69
R20: G 1.75, A 1.32, P 2.05, E 1.46, L 3.16, T 3.97, K 1.5, N 2.98, S 1.56, C 1.24
G3: R 1.87, Q 2.54, T 2.82, L 1.72, N 1.89, H 2.49, V 4.45, S 1.84, D 2.35, K 2.06, E 1.87, Y 2.42
Y18: K 2.17, S 1.07, N 2.18, C 3.15, A 3.71, H 1.6, R 2.81, E 1.12
M15: Q 2.44, G 1.06, D 1.76, S 1.88, K 3.06, T 1.05
L5: A 1.95, T 1.94, K 2.21, R 1.5, F 3.54, N 1.93, G 1.92, Y 3.11, D 2.17, M 1.97, Q 2.13, P 1.99, H 1.56, S 1.47
D24: I 3.06, H 4.96, E 3.24, K 1.4
F22: T 3.49, G 2.8, E 3.79, S 1.57, M 2.71, P 1.75, K 1.41, W 1.74, L 2.35
N21: D 1.87, M 3.52, Q 2.87, G 2.56, I 2.9, S 2.11, L 3, T 2.15, E 2.14
L11: D 1.77, R 2.83, Q 2.86, T 1.46, V 3.1, P 2.03, K 2.67, H 2.06, I 3.82, N 2.23, C 2.2, Y 2.08, A 1.61
E4: P 1.81, K 1.84, M 2.15, D 1.86, G 1.85, Y 3.22, L 2.92, V 3.53, A 2.85, S 2.34, H 2.13, F 3.77, N 2.42, Q 2.46
Q16: C 2.77, G 1.78, I 2.45, M 2.63
W8: Y 1.42, V 2.29, A 2.8, N 1.3, R 2.78, T 1.28, G 2.89, I 2.39, Q 1.98, D 2.74, S 1.51, C 1.88, L 3.77, E 2.13, H 1.61, K 1.67, M 2.85, P 2.16
D9: M 3, R 2.69, K 2.07, L 1.54, F 2.57, C 2.29, P 3.61, W 2.99, H 2.88, T 3.42
